From the RNAGym collection of RNA variant scans (doi:10.7554/elife.80360)

B1: CPEB3 Ribozyme (parent)
chain: GGGGGCCACAGCAGAAGCGUUCACGUCGCGGCCCCUGUCAGAUUCUGGUGAAUCUGCGAAUUCUGCUGU
B2: Hammerhead Ribozyme (parent)
chain: ACCGGAUGUGCUUUCCGGUCUGAUGAGUCCGUGAGGACGAAACAG

Variants of: B1
Test: self-cleavage, relative activity (ratio to wild type); higher = more cleavage; co-transcriptional

Variant	self-cleavage
C63G U64G	0.471
C63G U67C	0.569
C63G U67G	0.752
C63G U69A	0.864
C63G U69C	1.04
C63U	0.991
C63U C66A	0.473
C63U C66U	0.863
C63U G68A	0.967
C63U U64G	0.777
C63U U67C	0.968
C63U U67G	0.985
C63U U69A	1.02
C63U U69G	1.04
U64A C66A	0.502
U64A C66G	0.417
U64A C66U	0.668
U64A G65A	0.701
U64A G68C	0.913
U64A G68U	0.922
U64A U67A	0.895
U64A U67G	0.922

Variant	self-cleavage
U64C C66G	0.555
U64C C66U	0.624
U64C G65A	0.565
U64C G65C	0.504
U64C G68A	0.931
U64C G68C	0.911
U64C U67A	0.864
U64C U67C	0.764
U64C U69C	1.07
U64G C66G	0.442
U64G C66U	0.558
U64G G65A	0.578
U64G G65C	0.679
U64G G68A	1
U64G G68C	0.799
U64G G68U	0.923
U64G U69A	0.97
U64G U69C	1.05
U64G U69G	1.02
G65A	0.954
G65A C66G	0.797
G65A C66U	0.77

Variant	self-cleavage
G65A G68A	0.941
G65A G68C	0.945
G65A G68U	0.813
G65A U67A	0.793
G65A U67C	0.844
G65A U67G	0.887
G65A U69G	0.947
G65C	0.758
G65C C66G	0.65
G65C C66U	0.816
G65C G68A	0.678
G65C U67C	0.905
G65C U67G	0.905
G65C U69A	0.828
G65U	0.877
G65U C66A	0.669
G65U C66G	0.814
G65U C66U	0.55
G65U G68C	0.852
G65U U67A	0.848
G65U U67C	0.78
G65U U67G	0.92

Variant	self-cleavage
G65U U69A	0.835
G65U U69C	0.97
C66A	0.911
C66A G68C	0.84
C66A G68U	0.799
C66A U67A	0.977
C66A U67G	0.891
C66A U69A	0.969
C66G	0.937
C66G G68A	0.96
C66G U67A	0.937
C66G U67G	0.909
C66G U69A	1.02
C66G U69C	1.01
C66G U69G	0.923
C66U	0.99
C66U G68C	0.991
C66U U67C	0.956
C66U U67G	1
C66U U69A	1.03
C66U U69C	1.06
U67A G68A	1.07

Variant	self-cleavage
U67A G68C	0.955
U67A G68U	1.01
U67A U69A	0.996
U67A U69C	1.07
U67A U69G	1.04
U67C G68A	0.983
U67C G68U	1.06
U67C U69A	1.07
U67C U69G	1.11
U67G G68C	1.07
U67G G68U	1.1
U67G U69A	1.1
U67G U69C	1.1
G68A U69G	1.06
G68C U69A	1.06
G68C U69G	1.11
G68U U69A	1.01
G68U U69C	1.1
G68U U69G	1.02
U69A	1.02
U69C	1.06
U69G	1.06

Variants of: B2
Test: as above

Variant	self-cleavage
A1C	0.466
A1C A6C	0.393
A1C A6G	0.417
A1C A6U	0.381
A1C A23C	0.287
A1C A23G	0.326
A1C A23U	0.362
A1C A26C	0.338
A1C A26G	0.302
A1C A26U	0.352
A1C A34C	0.477
A1C A34G	0.385
A1C A34U	0.384
A1C A37C	0.404
A1C A37G	0.348
A1C A37U	0.34
A1C A40C	0.446
A1C A40G	0.298
A1C A40U	0.484

Variant	self-cleavage
A1C A41C	0.372
A1C A41G	0.328
A1C A41U	0.341
A1C A42C	0.336
A1C A42G	0.367
A1C A42U	0.322
A1C A44C	0.376
A1C A44G	0.594
A1C A44U	0.377
A1C C2A	1.75
A1C C2G	0.524
A1C C2U	2.17
A1C C3A	0.426
A1C C3G	0.549
A1C C3U	0.345
A1C C11A	0.36
A1C C11G	0.395
A1C C11U	0.411
A1C C15A	0.497

Variant	self-cleavage
A1C C15G	0.43
A1C C15U	0.408
A1C C16A	0.453
A1C C16G	0.351
A1C C16U	0.347
A1C C20A	0.349
A1C C20G	0.354
A1C C20U	0.376
A1C C29A	0.31
A1C C29G	0.341
A1C C29U	0.402
A1C C30A	0.4
A1C C30G	0.34
A1C C30U	0.364
A1C C38A	0.408
A1C C38G	0.39
A1C C38U	0.495
A1C C43A	0.295
A1C C43G	0.285
